Measurements: US20250235545A1, “POLYPEPTIDE CONJUGATE AND USE THEREOF” (SHANGHAI CHIXI BIOMEDICAL TECHNOLOGY CO., LTD, priority 2024, published 2025)
≈ marks a conversion by molar mass, not a printed value. Where two headings read alike, the source gives them in different places. Where a SMILES comes first, the peptide text is derived from it. The star is where a group is joined. NEt(2-(20S-CPT-7-yl)ethyl) = CCN(CCc1c2c(nc3ccccc13)-c1cc3c(c(=O)n1C2)COC(=O)[C@]3(O)CC)*; Belotecan = CC[C@@]1(O)C(=O)OCc2c1cc1n(c2=O)Cc2c-1nc1ccccc1c2CCN(C(C)C)*; X1 = CC[C@@]1(O)C(=O)OCc2c1cc1n(c2=O)Cc2c-1nc1ccccc1c2CCN(C1CCC1)*; X3 = CC[C@@]1(O)C(=O)OCc2c1cc1n(c2=O)Cc2c-1nc1ccccc1c2CCN(C1CC1)*; Propanoyl(3-maleimido) = O=C1C=CC(=O)N1CCC(=O)*; PEG6 = NCCOCCOCCOCCOCCOCCOCCC(=O)O

How the values were obtained:
[1] = tested on: colo320 (colorectal cancer tissue); assay: cells; type: cell-based; settings: CCK8, 48 h; Table 6
How it was run: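 Colo320 cells, 5,000 per well, exposed to drug concentration series for 48 h at 37 °C, 5% CO2 (0.1% DMSO controls). Viability by CCK8, absorbance at 450 nm after about 2 h. Survival rates and IC50 calculated.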

[2] = Tumor homogenate activation efficiency, colorectal cancer tissue (Example 37); type: in vitro ADME; settings: pH 5.0, 37° C., 2 h; Table 10
Method: Buffer preparation: 50 mM PH buffer (MES), 250 mM NaCl, pH adjusted to 5.0 with 0.5 M of sodium hydroxide.
The polypeptide conjugate was prepared into a 1 mg/ml solution with pH 5.0 buffer, 100 μg of tumor tissue homogenate was added, (the tumor tissue homogenate was the homogenate of tumor tissues prepared with a Jingxin F6/10 handheld homogenizer), and the solution was placed at 37° C. for 2 h. The tumor tissue homogenate could effectively activate the polypeptide conjugate and release Belotecan, and the activation efficiencies of the drugs in tumor tissues were compared by HPLC allowing determination of a decrease in the compounds and an increase in Belotecan:
Release percentage=peak area of Belotecan/total peak area of Belotecan and all other Belotecan-containing compounds

[3] = Homogenate activation efficiency, heart tissue (Examples 28, 37); type: in vitro ADME; settings: pH 5.0, 37° C., 2 h; Table 10
[4] = Tumor homogenate activation efficiency, non-small cell lung cancer tissue (Examples 28, 37); type: in vitro ADME; settings: pH 5.0, 37° C., 2 h; Table 10
How it was run: (§1)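 Activation is reported as the fraction of free Belotecan peak area among all Belotecan-bearing peaks by HPLC. The conjugate (1 mg/ml) reacts with 100 μg homogenate for 2 h at 37° C in MES buffer, pH 5.0.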

[5] = Tumor homogenate activation efficiency, ovarian cancer tissue (Examples 28, 37); type: in vitro ADME; settings: pH 5.0, 37° C., 2 h; Table 10
How it was run: as §1

[6] = Tumor homogenate activation efficiency, sarcoma tissue (Examples 28, 37); type: in vitro ADME; settings: pH 5.0, 37° C., 2 h; Table 10
How it was run: as §1

[7] = Tumor homogenate activation efficiency, breast cancer tissue (Examples 28, 37); type: in vitro ADME; settings: pH 5.0, 37° C., 2 h; Table 10
How it was run: as §1

[8] = tested on: sarcoma SJSA-1 tumor model; assay: Efficacy in animal model of sarcoma SJSA-1, 30 mg/kg once a week for two weeks (Example 40); type: in vivo, BALB/c mice; settings: 30 mg/kg once a week for two weeks
Method: Test objective: To further compare the antitumor efficacy of different polypeptide Linkers in an animal tumor model of sarcoma SJSA-1.
(§2) Test drug: Polypeptide conjugate and normal saline control group.
The control group was administered normal saline. Administration was performed once a week for two weeks.

[9] = MTD determination in mice (Examples 27, 36, 44); type: in vivo; settings: female, mouse, in vivo; mice, monitored for 14 d; Table 9
Description: Test animals: 6-8 weeks old mice, all female; mice were grouped randomly, with six mice in each group, administered with drugs at different concentration gradients separately and monitored for 14 d. A mouse was euthanized at a loss of 20% of its initial weight and deemed to have died of poisoning.

SJSA-1 (sarcoma tissue) = assay: cells; type: cell-based; settings: CCK8, 48 h; Table 6
How it was run: (§3)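 CCK8 absorbance at 450 nm, read after roughly 2 h of staining, gave cell survival rates from which IC50 values were derived. Beforehand, 5,000 cells/well were exposed for 48 h at 37° C to serial drug dilutions (triplicate wells; 0.1% DMSO vehicle control; cell-free blanks).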

[10] = tested on: A549 (non-small cell lung cancer); assay: cells; type: cell-based; settings: CCK8, 48 h; Table 6
How it was run: as §3

[11] = tested on: SKBR3 (breast cancer tissue); assay: cells; type: cell-based; settings: CCK8, 48 h; Table 6
How it was run: as §3

A2780 (ovarian cancer) = assay: cells; type: cell-based; settings: CCK8, 48 h; Table 6
How it was run: as §3

[12] = tested on: sarcoma SJSA-1 tumor model; settings: Table 7
How it was run: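 Female BALB/c nude mice (6-8 weeks) bearing subcutaneous right-chest SJSA-1 xenografts from 2×10^7 cells were randomized, three per group, once tumors reached at least 100 mm^3. Treatment given once a week for three weeks starting day 1; saline controls.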

[13] = tested on: colo320 colorectal cancer tumor model
How it was run: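 Dosing was once a week for four weeks, with saline as control, in randomized groups of three mice. Groups were formed after subcutaneous colo320 xenografts (7.5×10^6 cells, right chest) grew to ≥120 mm^3 in female 6–8-week-old BALB/c nude mice.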

[14] = tested on: A2780 ovarian cancer tumor model; assay: Efficacy in animal model of A2780 ovarian cancer, 30 mg/kg once a week for two weeks (Example 41); type: in vivo, BALB/c mice; settings: Day 14
Method: Test objective: To further compare the antitumor efficacy of different polypeptide Linkers in an animal tumor model of A2780 ovarian cancer.
as §2
8×10^6 corresponding cells were injected into right axillas of nude mice subcutaneously. […] The negative control group was administered normal saline. Administration was performed once a week for two weeks.

[15] = 15 mg/kg once a week for three weeks
[16] = 45 mg/kg once a week for three weeks
[17] = 15 mg/kg once a week for four weeks, Table 8
[18] = 45 mg/kg once a week for four weeks, Table 8
[19] = Table 14 (Example 43), dose 45 mg/kg, once a week for four weeks, BALB/c mice

SMILES	IC50 Colorectal cancer tissue (colo320) [1]	Percentage of release efficiency (%) Colorectal cancer tissue (colo320) [2]	Percentage of release efficiency (%) Heart tissue [3]	Percentage of release efficiency (%) Non-small cell lung cancer tissue (A549) [4]	Percentage of release efficiency (%) Ovarian cancer tissue (A2780) [5]	Percentage of release efficiency (%) Sarcoma tissue (SJSA1) [6]	Percentage of release efficiency (%) Breast cancer tissue (SKBR3) [7]	Mouse weight (%) on Day 14 ([8]; Day 14)	MTD at 14 d [9]	IC50 Sarcoma tissue (SJSA-1) (SJSA-1 (sarcoma tissue))	IC50 Non-small cell lung cancer tissue (A549) [10]	IC50 Breast cancer tissue (SKBR3) [11]	IC50 Ovarian cancer tissue (A2780) (A2780 (ovarian cancer))	Mouse weight (%) [12, 15]	Mouse weight (%) [12, 16]	Mouse weight (%) [13, 17]	Mouse weight (%) [13, 18]	Mouse weight (%) [13, 19]	Mouse weight (%) on Day 14 [14]	also measured
CC[C@@]1(O)C(=O)OCc2c1cc1n(c2=O)Cc2c-1nc1ccccc1c2CCN(C(=O)[C@H](CC(C)C)NC(=O)[C@H](CC(N)=O)NC(=O)[C@H](C)NC(=O)[C@H](C)NC(=O)CCOCCOCCOCCOCCOCCOCCNC(=O)CCN1C(=O)C=CC1=O)C(C)C [MI-6PEG-AANL-Belotecan] ({Propanoyl(3-maleimido)-PEG6}-AANL-Belotecan)	2.74 µg/mL (≈ 2.12 µM)	75.6%	2.5%	76.5%	81.2%	75.5%	69.5%	−1.3%	150 mg/kg	0.90 µg/mL (≈ 0.698 µM)	1.55 µg/mL (≈ 1.2 µM)	2.48 µg/mL (≈ 1.92 µM)	0.91 µg/mL (≈ 0.706 µM)	+24%	+21%	+22%	+2%	+2%		
CC[C@@]1(O)C(=O)OCc2c1cc1n(c2=O)Cc2c-1nc1ccccc1c2CCN(C(=O)[C@H](CC(C)C)NC(=O)[C@H](CC(N)=O)NC(=O)[C@H](C)NC(=O)[C@H](C)NC(=O)CCOCCOCCOCCOCCOCCOCCNC(=O)CCN1C(=O)C=CC1=O)C1CCC1 [MI-6PEG-AANL-D7] ({Propanoyl(3-maleimido)-PEG6}-AANL-X1)	2.48 µg/mL (≈ 1.91 µM)	76.4%	2.2%	74.6%	66.7%	71.7%	72.3%	−3.3%	150 mg/kg	1.33 µg/mL (≈ 1.02 µM)	1.81 µg/mL (≈ 1.39 µM)	2.01 µg/mL (≈ 1.54 µM)	0.91 µg/mL (≈ 0.699 µM)	+12%	+19%	+29%	+9%		+4.8%	
CC[C@@]1(O)C(=O)OCc2c1cc1n(c2=O)Cc2c-1nc1ccccc1c2CCN(C(=O)[C@H](CC(C)C)NC(=O)[C@H](CC(N)=O)NC(=O)[C@H](C)NC(=O)[C@H](C)NC(=O)CCOCCOCCOCCOCCOCCOCCNC(=O)CCN1C(=O)C=CC1=O)C1CC1 [MI-6PEG-AANL-D6] ({Propanoyl(3-maleimido)-PEG6}-AANL-X3)	1.87 µg/mL (≈ 1.45 µM)	73.5%	3%	66.1%	76.2%	69.5%	66.9%	−2.5%	120 mg/kg	0.51 µg/mL (≈ 0.396 µM)	1.38 µg/mL (≈ 1.07 µM)	2.02 µg/mL (≈ 1.57 µM)	0.70 µg/mL (≈ 0.544 µM)	+19%	+17%	+25%	+5%		+5.2%	
CCN(CCc1c2c(nc3ccccc13)-c1cc3c(c(=O)n1C2)COC(=O)[C@]3(O)CC)C(=O)[C@H](CC(C)C)NC(=O)[C@H](CC(N)=O)NC(=O)[C@H](C)NC(=O)[C@H](C)NC(=O)CCOCCOCCOCCOCCOCCOCCNC(=O)CCN1C(=O)C=CC1=O [MI-6PEG-AANL-D2] ({Propanoyl(3-maleimido)-PEG6}-AANL-{NEt(2-(20S-CPT-7-yl)ethyl)})	4.65 µg/mL (≈ 3.65 µM)	65%	0.9%	73.6%	71.3%	67.1%	73.5%	+1.9%	200 mg/kg	1.58 µg/mL (≈ 1.24 µM)	2.57 µg/mL (≈ 2.02 µM)	3.28 µg/mL (≈ 2.57 µM)	1.31 µg/mL (≈ 1.03 µM)	+41%	+24%		+19%	+19%		SJSA-1 (sarcoma tissue) mean tumor volume (mm^3) Day 1 ([8]; Day 1): 136.59 mm^3; SJSA-1 (sarcoma tissue) mean tumor volume (mm^3) Day 4 ([8]; Day 4): 465.17 mm^3; SJSA-1 (sarcoma tissue) mean tumor volume (mm^3) Day 7 ([8]; Day 7): 891.36 mm^3; SJSA-1 (sarcoma tissue) mean tumor volume (mm^3) Day 10 ([8]; Day 10): 1320.55 mm^3; SJSA-1 (sarcoma tissue) growth rate (%) on Day 14 ([8]; Day 14): 1623.94%; SJSA-1 (sarcoma tissue) mean tumor volume (mm^3) Day 14 ([8]; Day 14): 2218.14 mm^3; SJSA-1 (sarcoma tissue) growth rate (%) [12, 15]: 1316.56%; SJSA-1 (sarcoma tissue) mean tumor volume (mm^3) [12, 15]: 1645.7 mm^3; SJSA-1 (sarcoma tissue) growth rate (%) [12, 16]: 964.08%; SJSA-1 (sarcoma tissue) mean tumor volume (mm^3) [12, 16]: 1213.3 mm^3; colo320 (colorectal cancer cell) growth rate (%) [13, 18]: 760.87%; colo320 (colorectal cancer cell) mean tumor volume (mm^3) [13, 18]: 894.4 mm^3; colo320 (colorectal cancer cell) growth rate (%) [13, 19]: 760.87%; colo320 (colorectal cancer cell) mean tumor volume (mm^3) [13, 19]: 894.4 mm^3
